# Data reported in the supplement of paper PMC10567573.
# B1: FUT8 (parent)
# chain: NWRYATGGWETVFRPVSETCTDRS
# Variants of: B1
# Assay: protein stability index of a GFP-peptide fusion (GPS, HEK-293T) (PSI 1-6); higher = more stable
# Conditions: c terminus: a fixed tail appended
# 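Further: lentivirally expressed fusions sorted by FACS into six bins by GFP to DsRed ratio, PSI derived from sequencing read proportions per bin multiplied by bin number.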
row,Variant,protein stability index
1,NWRYATGGWETNFRPVSETCTDRS,1.97
2,NWRYATGGWETYFRPVSETCTDRS,2.73
3,NWRYATGGWETIFRPVSETCTDRS,2.57
4,NWRYATGGWETWFRPVSETCTDRS,1.26
5,NWRYATGGWETRFRPVSETCTDRS,2.08
6,NWRYATGGWETPFRPVSETCTDRS,2.85
7,NWRYATGGWETQFRPVSETCTDRS,2.56
8,NWRYATGGWETAFRPVSETCTDRS,2.46
9,NWRYATGGWETEFRPVSETCTDRS,2.23
10,NWRYATGGWETTFRPVSETCTDRS,1.69
11,NWRYATGGWETHFRPVSETCTDRS,2.23
12,NWRYATGGWETSFRPVSETCTDRS,1.97
13,NWRYATGGWETKFRPVSETCTDRS,3.27
14,NWRYATGGWETCFRPVSETCTDRS,2
15,NWRYATGGWETGFRPVSETCTDRS,1.09
16,NWRYATGGWETFFRPVSETCTDRS,1.45
17,NWRYATGGWETMFRPVSETCTDRS,2.48
18,NWRYATGGWETVFRTVSETCTDRS,1.82
19,NWRYATGGWETVFRYVSETCTDRS,1.27
20,NWRYATGGWETVFRDVSETCTDRS,3.23
21,NWRYATGGWETVFRLVSETCTDRS,2.1
22,NWRYATGGWETVFRWVSETCTDRS,1.98
23,NWRYATGGWETVFRNVSETCTDRS,1.95
24,NWRYATGGWETVFRGVSETCTDRS,2.05

row,Variant,protein stability index
1,NWRYATGGWETVFRSVSETCTDRS,3.98
2,NWRYATGGWETVFRIVSETCTDRS,2.35
3,NWRYATGGWETVFRKVSETCTDRS,2.03
4,NWRYATGGWETVFRQVSETCTDRS,2.43
5,NWRYATGGWETVFRRVSETCTDRS,1.68
6,NWRYATGGWETVDRPVSETCTDRS,3.66
7,NWRYATGGWETVQRPVSETCTDRS,2.52
8,NWRYATGGWETVHRPVSETCTDRS,2.99
9,NWRYATGGWETVWRPVSETCTDRS,3.09
10,NWRYATGGWETVVRPVSETCTDRS,1.64
11,NWRYATGGWETVIRPVSETCTDRS,1.66
12,NWRYATGGWETVLRPVSETCTDRS,2.28
13,NWRYATGGWETVKRPVSETCTDRS,3
14,NWRYATGGWETVARPVSETCTDRS,3.91
15,NWRYATGGWETVCRPVSETCTDRS,2.15
16,NWRYATGGWETVMRPVSETCTDRS,2.28
17,NWRYATGGWETVERPVSETCTDRS,3.2
18,NWRYATGGWETVTRPVSETCTDRS,2.28
19,NWRYATGGWETVPRPVSETCTDRS,3.54
20,NWRYATGGWETVYRPVSETCTDRS,1.55
21,NWRYATGGWETVNRPVSETCTDRS,2.78
22,NWRYATGGWETVRRPVSETCTDRS,2.69
23,NWRYATGGWETVFRPGSETCTDRS,3.55
24,NWRYATGGWETVFRPWSETCTDRS,2.01

row,Variant,protein stability index
1,NWRYATGGWETVFRPMSETCTDRS,2.47
2,NWRYATGGWETVFRPASETCTDRS,1.66
3,NWRYATGGWETVFRPPSETCTDRS,1.97
4,NWRYATGGWETVFRPLSETCTDRS,1.57
5,NWRYATGGWETVFRPTSETCTDRS,1.61
6,NWRYATGGWETVFRPCSETCTDRS,1.06
7,NWRYATGGWETVFRPISETCTDRS,2.37
8,NWRYATGGWETVFRPFSETCTDRS,1.23
9,NWRYATGGWETVFRPNSETCTDRS,1.78
10,NWRYATGGWETVFRPESETCTDRS,1.59
11,NWRYATGGWETVFRPRSETCTDRS,1.19
12,NWRYATGGWETVFRPYSETCTDRS,1.96
13,NWRYATGGWETVFRPHSETCTDRS,2.56
14,NWRYATGGWETVFRPQSETCTDRS,2.28
15,NWRYATGGWETVFRPDSETCTDRS,1.81
16,NWRYATGGWETVFRPKSETCTDRS,2.73
17,NWRYATGGWEGVFRPVSETCTDRS,1.97
18,NWRYATGGWEIVFRPVSETCTDRS,3.25
19,NWRYATGGWEDVFRPVSETCTDRS,2.2
20,NWRYATGGWEYVFRPVSETCTDRS,4.5
21,NWRYATGGWEQVFRPVSETCTDRS,2.15
22,NWRYATGGWEWVFRPVSETCTDRS,1.98
23,NWRYATGGWECVFRPVSETCTDRS,1.78
24,NWRYATGGWEPVFRPVSETCTDRS,2

row,Variant,protein stability index
1,NWRYATGGWELVFRPVSETCTDRS,2.12
2,NWRYATGGWEVVFRPVSETCTDRS,2.12
3,NWRYATGGWENVFRPVSETCTDRS,1.9
4,NWRYATGGWEFVFRPVSETCTDRS,1.48
5,NWRYATGGWEHVFRPVSETCTDRS,1.69
6,NWRYATGGWEEVFRPVSETCTDRS,2.86
7,NWRYATGGWERVFRPVSETCTDRS,3.69
8,NWRYATGGWEKVFRPVSETCTDRS,1.68
9,NWRYAYGGWETVFRPVSETCTDRS,1.96
10,NWRYAWGGWETVFRPVSETCTDRS,1.65
11,NWRYARGGWETVFRPVSETCTDRS,1.51
12,NWRYAVGGWETVFRPVSETCTDRS,2.11
13,NWRYASGGWETVFRPVSETCTDRS,1
14,NWRYATGGWETVFRPVSITCTDRS,2.05
15,NWRYATGGWETVFRPVSDTCTDRS,2.28
16,NWRYATGGWETVFRPVSHTCTDRS,1.51
17,NWRYATGGWETVFRPVSKTCTDRS,2.27
18,NWRYATGGWETVFRPVSGTCTDRS,1.41
19,NWRYATGGWETVFRPVSFTCTDRS,2.36
20,NWRYATGGPETVFRPVSETCTDRS,2.95
21,NWRYATGGFETVFRPVSETCTDRS,1.41
22,NWRYATGGYETVFRPVSETCTDRS,2.32
23,NWRYATGGGETVFRPVSETCTDRS,1.96
24,NWRYATGGLETVFRPVSETCTDRS,2.29

row,Variant,protein stability index
1,NWRYATGGIETVFRPVSETCTDRS,2.22
2,NWRYATGGMETVFRPVSETCTDRS,1.72
3,NWRYATGGQETVFRPVSETCTDRS,2.03
4,NWRYATGGRETVFRPVSETCTDRS,1.88
5,NWRYATGGEETVFRPVSETCTDRS,2.79
6,NWRYATGGTETVFRPVSETCTDRS,1.55
7,NWRYATGGDETVFRPVSETCTDRS,2.33
8,NWRYATGGNETVFRPVSETCTDRS,2.27
9,NWRYATGGKETVFRPVSETCTDRS,2.06
10,NWRYATGGHETVFRPVSETCTDRS,2.73
11,NWRYATGGSETVFRPVSETCTDRS,2.03
12,NWRYATGGVETVFRPVSETCTDRS,2.31
13,NWRYATKGWETVFRPVSETCTDRS,2.39
14,NWRYATIGWETVFRPVSETCTDRS,2.11
15,NWRYATEGWETVFRPVSETCTDRS,3.17
16,NWRYATCGWETVFRPVSETCTDRS,2.08
17,NWRYATSGWETVFRPVSETCTDRS,1.97
18,NWRYATRGWETVFRPVSETCTDRS,1.75
19,NWRYATTGWETVFRPVSETCTDRS,2.12
20,NWRYATAGWETVFRPVSETCTDRS,2.94
21,NWRYATLGWETVFRPVSETCTDRS,1.89
22,NWRYATFGWETVFRPVSETCTDRS,2.64
23,NWRYATQGWETVFRPVSETCTDRS,2.49
24,NWRYATMGWETVFRPVSETCTDRS,1.81

row,Variant,protein stability index
1,NWRYATPGWETVFRPVSETCTDRS,2.19
2,NWRYATYGWETVFRPVSETCTDRS,2.12
3,NWRYATHGWETVFRPVSETCTDRS,2.22
4,NWRYATNGWETVFRPVSETCTDRS,2.13
5,NWRYATWGWETVFRPVSETCTDRS,1.59
6,NWRYATGGWNTVFRPVSETCTDRS,1.86
7,NWRYATGGWDTVFRPVSETCTDRS,1.8
8,NWRYATGGWYTVFRPVSETCTDRS,2.52
9,NWRYATGGWTTVFRPVSETCTDRS,1.63
10,NWRYATGGWKTVFRPVSETCTDRS,3.86
11,NWRYATGGWQTVFRPVSETCTDRS,1.2
12,NWRYATGGWHTVFRPVSETCTDRS,2.21
13,NWRYATGGWRTVFRPVSETCTDRS,2.49
14,NWRYATGGWMTVFRPVSETCTDRS,1.73
15,NWRYATGGWPTVFRPVSETCTDRS,1.18
16,NWRYATGGWSTVFRPVSETCTDRS,1.86
17,NWRYATGGWITVFRPVSETCTDRS,3.19
18,NWRYATGGWVTVFRPVSETCTDRS,1.02
19,NWRYATGGWFTVFRPVSETCTDRS,3.97
20,NWRYATGLWETVFRPVSETCTDRS,1.82
21,NWRYATGDWETVFRPVSETCTDRS,2.9
22,NWRYATGRWETVFRPVSETCTDRS,1.41
23,NWRYATGYWETVFRPVSETCTDRS,1.89
24,NWRYATGPWETVFRPVSETCTDRS,1.74

row,Variant,protein stability index
1,NWRYATGKWETVFRPVSETCTDRS,3.73
2,NWRYATGNWETVFRPVSETCTDRS,2.26
3,NWRYATGAWETVFRPVSETCTDRS,1.84
4,NWRYATGSWETVFRPVSETCTDRS,2.4
5,NWRYATGWWETVFRPVSETCTDRS,2.51
6,NWRYATGHWETVFRPVSETCTDRS,2.43
7,NWRYATGTWETVFRPVSETCTDRS,2.47
8,NWRYATGCWETVFRPVSETCTDRS,1.55
9,NWRYATGFWETVFRPVSETCTDRS,1.53
10,NWRYATGQWETVFRPVSETCTDRS,1.98
11,NWRYATGIWETVFRPVSETCTDRS,1.48
12,NWRYATGMWETVFRPVSETCTDRS,2.01
13,NWRYATGEWETVFRPVSETCTDRS,2.22
14,NWRYATGGWETVFQPVSETCTDRS,1.77
15,NWRYATGGWETVFNPVSETCTDRS,3.41
16,NWRYATGGWETVFEPVSETCTDRS,1.83
17,NWRYATGGWETVFSPVSETCTDRS,1.01
18,NWRYATGGWETVFTPVSETCTDRS,3.45
19,NWRYATGGWETVFFPVSETCTDRS,1.29
20,NWRYATGGWETVFDPVSETCTDRS,2.4
21,NWRYATGGWETVFYPVSETCTDRS,2.1
22,NWRYATGGWETVFGPVSETCTDRS,1.57
23,NWRYATGGWETVFIPVSETCTDRS,2.66
24,NWRYATGGWETVFMPVSETCTDRS,1.7

row,Variant,protein stability index
1,NWRYATGGWETVFWPVSETCTDRS,1.6
2,NWRYATGGWETVFHPVSETCTDRS,1.12
3,NWRYATGGWETVFVPVSETCTDRS,1.55
4,NWRYATGGWETVFPPVSETCTDRS,2.69
5,NWRYATGGWETVFKPVSETCTDRS,1.7
6,NWRYATGGWETVFCPVSETCTDRS,3.72
7,NWRYATGGWETVFRPVIETCTDRS,1.28
8,NWRYATGGWETVFRPVDETCTDRS,2.33
9,NWRYATGGWETVFRPVMETCTDRS,1.28
10,NWRYATGGWETVFRPVAETCTDRS,2.34
11,NWRYATGGWETVFRPVQETCTDRS,2.67
12,NWRYATGGWETVFRPVTETCTDRS,1.64
13,NWRYATGGWETVFRPVHETCTDRS,1.85
14,NWRYATGGWETVFRPVNETCTDRS,2.29
15,NWRYATGGWETVFRPVFETCTDRS,2.77
16,NWRYATGGWETVFRPVGETCTDRS,3.4
17,NWRYATGGWETVFRPVYETCTDRS,1.53
18,NWRYATGGWETVFRPVCETCTDRS,3.15
19,NWRYATGGWETVFRPVWETCTDRS,2.42
20,NWRYATGGWETVFRPVRETCTDRS,1.88
